Data set [1] is described as follows: tryptophan fluorescence, urea dissociation of peptide complexes, 5 µM peptide.
Data set [2] in a line: tryptophan fluorescence, urea dissociation of peptide complexes, 25 µM peptide.

On to delta-haemolysin, for which the “midpoint of the unfolding curve” value in data set [1] is “The midpoints of the unfolding curves of 5 µM and 25 µM were 2.14 and 3.20M urea”; in data set [2], “The midpoints of the unfolding curves of 5 µM and 25 µM were 2.14 and 3.20M urea”.

Values taken from patent US20100166708.
